# Laboratory results published in patent US20230061973A1 (LARIMAR THERAPEUTICS, published 2023).
# T1: exemplary TAT frataxin fusion molecule (HIV-1, UniProt Q16595 1-210)
# T1 construct: in the bridging assays biotinylated and sulfotagged forms were used; also called TAT-FXN fusion molecule; TAT FXN fusion molecule
# T1 sequence: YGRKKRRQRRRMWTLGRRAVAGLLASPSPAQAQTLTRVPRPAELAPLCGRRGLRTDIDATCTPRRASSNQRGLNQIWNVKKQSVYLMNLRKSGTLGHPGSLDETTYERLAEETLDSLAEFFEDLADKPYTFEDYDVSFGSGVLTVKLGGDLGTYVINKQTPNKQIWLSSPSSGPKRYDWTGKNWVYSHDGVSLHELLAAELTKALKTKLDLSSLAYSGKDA
# Molecular target: T1, exemplary TAT frataxin fusion molecule
# Test: PK sandwich ELISA in human plasma, antibody as capture, HRP anti-frataxin mAb detection
Binder,Mean OD at plasma conc. 0.400 ng/mL [OD],Mean OD at plasma conc. 0.800 ng/mL [OD],Mean OD at plasma conc. 1.60 ng/mL [OD],Mean OD at plasma conc. 3.20 ng/mL [OD],Mean OD at plasma conc. 6.40 ng/mL [OD],Mean OD at plasma conc. 12.8 ng/mL [OD],Mean OD at plasma conc. 25.6 ng/mL [OD],Mean OD at plasma conc. 51.2 ng/mL [OD],S/N at plasma conc. 0.400 ng/mL,S/N at plasma conc. 0.800 ng/mL
"antibody 10-9 (antibody, V domains shown, Rabbit monoclonal) VH: QSLEESGGDLVKPGASLTLTCTASGFSFSSGYWICWVRQAPGKGLEWIACIYTGDGDTSYASWAKGRFTISKTSSTTVTLQMTSLTVADTAIYFCARDTSGTFYYNLWGPGTLVAVSS VL: AAVLTQTPSSVSAAVGGTVTISCQSSESVYKTNYLSWFQKKPGQPPKLLIYDASTLASGVPSRFSGSGSGTQFTLTISDLECDDAATYYCAGGYSDDINAFGGGTEVEIK",0.077,0.1,0.14,0.229,0.437,0.781,1.49,2.77,1.6,2.1
"antibody 10-4 (antibody, V domains shown, Rabbit monoclonal) VH: QSLEESGGDLVKPGASLTLTCTASGFSFSSGYWICWVRQAPGKGLEWIACIYTGDGDTSYASWAKGRFTISKTSSTTVTLQMTSLTVADTAIYFCARDTSGTFYYNLWGPGTLVAVSS VL: DVVMTQTPSPVSAPVGGTVTINCQASQNIYSNLAWYQQKPGQPPKLLIYGASTLASGVSSRFKGSRSGTEFTLTISDLECADAATYYCQSYVYSSSTADTFGGGTKVVVE",0.076,0.092,0.14,0.229,0.411,0.757,1.41,2.7,1.4,1.6
"antibody 12-1 (antibody, V domains shown, Rabbit monoclonal) VH: QSLEESGGDLVKPGASLTLTCTASGFSFSSGYWICWVRQAPGKGLEWIACIYTGDGDTSYASWAKGRFTISKTSSTTVTLQMTSLTVADTAIYFCARDTSGTFYYNLWGPGTLVAVSS VL: DVVMTQTPSPVSAPVGGTVTINCQASQNIYSNLAWYQQKPGQPPKLLIYGASTLASGVSSRFKGSRSGTEFTLTISDLECADAATYYCQSYVYSSSTADTFGGGTKVVVE",0.067,0.088,0.137,0.229,0.433,0.795,1.44,2.67,1.4,1.9
"antibody 12-3 (antibody, V domains shown, Rabbit monoclonal) VH: QSLEESGGDLVKPGASLTLTCTASGFSFSSGYWICWVRQAPGKGLEWIACIYTGDGDTSYASWAKGRFTISKTSSTTVTLQMTSLTVADTAIYFCARDTSGTFYYNLWGPGTLVAVSS VL: DVVMTQTPSPVSAPVGGTVTINCQASQNIYSNLAWYQQKPGQPPKLLIYGASTLASGVSSRFKGSRSGTEFTLTISDLECADAATYYCQSYVYSSSTADTFGGGTKVVVE",0.067,0.091,0.133,0.22,0.416,0.767,1.45,2.78,1.6,2.1
"antibody 12-10 (antibody, V domains shown, Rabbit monoclonal) VH: QSLEESGGDLVKPGASLTLTCTASGFSFSSGYWICWVRQAPGKGLEWIACIYTGDGDTSYASWAKGRFTISKTSSTTVTLQMTSLTVADTAIYFCARDTSGTFYYNLWGPGTLVAVSS VL: AAVLTQTPSSVSAAVGGTVTISCQSSESVYKTNYLSWFQKKPGQPPKLLIYDASTLASGVPSRFSGSGSGTQFTLTISDLECDDAATYYCAGGYSDDINAFGGGTEVEIK",0.067,0.089,0.141,0.242,0.447,0.818,1.51,2.79,1.4,1.8
"antibody 12-8 (antibody, V domains shown, Rabbit monoclonal) VH: QSLEESGGDLVKPGASLTLTCTASGFSFSSGYWICWVRQAPGKGLEWIACIYTGDGDTSYASWAKGRFTISKTSSTTVTLQMTSLTVADTAIYFCARDTSGTFYYNLWGPGTLVAVSS VL: AAVLTQTPSSVSAAVGGTVTISCQSSESVYKTNYLSWFQKKPGQPPKLLIYDASTLASGVPSRFSGSGSGTQFTLTISDLECDDAATYYCAGGYSDDINAFGGGTEVEIK",0.07,0.087,0.129,0.225,0.409,0.75,1.45,2.67,1.5,1.9
"antibody 10-12 (antibody, V domains shown, Rabbit monoclonal) VH: QSLEESGGDLVKPGASLTLTCTASGFSFSSGYWICWVRQAPGKGLEWIACIYTGDGDTSYASWAKGRFTISKTSSTTVTLQMTSLTVADTAIYFCARDTSGTFYYNLWGPGTLVAVSS VL: ELVLTQTASSVSAAVGGTVTISCQSSESVYKTNYLSWFQKKPGQPPKLLIYDASTLASGVPSRFSGSGSGTQFTLTISDLECDDAATYYCAGGYSDDINAFGGGTEVVVK",0.073,0.092,0.136,0.23,0.417,0.778,1.4,2.7,1.6,2
"antibody 10-1 (antibody, V domains shown, Rabbit monoclonal) VH: QSLEESGGDLVKPGASLTLTCTASGFSFSSGYWICWVRQAPGKGLEWIACIYTGDGDTSYASWAKGRFTISKTSSTTVTLQMTSLTVADTAIYFCARDTSGTFYYNLWGPGTLVAVSS VL: ELVLTQTASSVSAAVGGTVTISCQSSESVYKTNYLSWFQKKPGQPPKLLIYDASTLASGVPSRFSGSGSGTQFTLTISDLECDDAATYYCAGGYSDDINAFGGGTEVVVK",0.07,0.093,0.14,0.228,0.43,,1.44,2.66,1.5,2

# Same assay, conditions: not given
Binder,S/N at plasma conc. 1.60 ng/mL,S/N at plasma conc. 3.20 ng/mL,S/N at plasma conc. 6.40 ng/mL,S/N at plasma conc. 12.8 ng/mL,S/N at plasma conc. 25.6 ng/mL,S/N at plasma conc. 51.2 ng/mL
"antibody 10-9 (antibody, V domains shown, Rabbit monoclonal) VH: QSLEESGGDLVKPGASLTLTCTASGFSFSSGYWICWVRQAPGKGLEWIACIYTGDGDTSYASWAKGRFTISKTSSTTVTLQMTSLTVADTAIYFCARDTSGTFYYNLWGPGTLVAVSS VL: AAVLTQTPSSVSAAVGGTVTISCQSSESVYKTNYLSWFQKKPGQPPKLLIYDASTLASGVPSRFSGSGSGTQFTLTISDLECDDAATYYCAGGYSDDINAFGGGTEVEIK",3,4.9,9.3,16.6,31.7,59
"antibody 10-4 (antibody, V domains shown, Rabbit monoclonal) VH: QSLEESGGDLVKPGASLTLTCTASGFSFSSGYWICWVRQAPGKGLEWIACIYTGDGDTSYASWAKGRFTISKTSSTTVTLQMTSLTVADTAIYFCARDTSGTFYYNLWGPGTLVAVSS VL: DVVMTQTPSPVSAPVGGTVTINCQASQNIYSNLAWYQQKPGQPPKLLIYGASTLASGVSSRFKGSRSGTEFTLTISDLECADAATYYCQSYVYSSSTADTFGGGTKVVVE",2.5,4.1,7.3,13.5,25.2,48.3
"antibody 12-1 (antibody, V domains shown, Rabbit monoclonal) VH: QSLEESGGDLVKPGASLTLTCTASGFSFSSGYWICWVRQAPGKGLEWIACIYTGDGDTSYASWAKGRFTISKTSSTTVTLQMTSLTVADTAIYFCARDTSGTFYYNLWGPGTLVAVSS VL: DVVMTQTPSPVSAPVGGTVTINCQASQNIYSNLAWYQQKPGQPPKLLIYGASTLASGVSSRFKGSRSGTEFTLTISDLECADAATYYCQSYVYSSSTADTFGGGTKVVVE",2.9,4.9,9.2,16.9,30.7,56.8
"antibody 12-3 (antibody, V domains shown, Rabbit monoclonal) VH: QSLEESGGDLVKPGASLTLTCTASGFSFSSGYWICWVRQAPGKGLEWIACIYTGDGDTSYASWAKGRFTISKTSSTTVTLQMTSLTVADTAIYFCARDTSGTFYYNLWGPGTLVAVSS VL: DVVMTQTPSPVSAPVGGTVTINCQASQNIYSNLAWYQQKPGQPPKLLIYGASTLASGVSSRFKGSRSGTEFTLTISDLECADAATYYCQSYVYSSSTADTFGGGTKVVVE",3.1,5.1,9.7,17.8,33.7,64.6
"antibody 12-10 (antibody, V domains shown, Rabbit monoclonal) VH: QSLEESGGDLVKPGASLTLTCTASGFSFSSGYWICWVRQAPGKGLEWIACIYTGDGDTSYASWAKGRFTISKTSSTTVTLQMTSLTVADTAIYFCARDTSGTFYYNLWGPGTLVAVSS VL: AAVLTQTPSSVSAAVGGTVTISCQSSESVYKTNYLSWFQKKPGQPPKLLIYDASTLASGVPSRFSGSGSGTQFTLTISDLECDDAATYYCAGGYSDDINAFGGGTEVEIK",2.9,4.9,9.1,16.7,30.8,57
"antibody 12-8 (antibody, V domains shown, Rabbit monoclonal) VH: QSLEESGGDLVKPGASLTLTCTASGFSFSSGYWICWVRQAPGKGLEWIACIYTGDGDTSYASWAKGRFTISKTSSTTVTLQMTSLTVADTAIYFCARDTSGTFYYNLWGPGTLVAVSS VL: AAVLTQTPSSVSAAVGGTVTISCQSSESVYKTNYLSWFQKKPGQPPKLLIYDASTLASGVPSRFSGSGSGTQFTLTISDLECDDAATYYCAGGYSDDINAFGGGTEVEIK",2.7,4.8,8.7,16,30.9,56.9
"antibody 10-12 (antibody, V domains shown, Rabbit monoclonal) VH: QSLEESGGDLVKPGASLTLTCTASGFSFSSGYWICWVRQAPGKGLEWIACIYTGDGDTSYASWAKGRFTISKTSSTTVTLQMTSLTVADTAIYFCARDTSGTFYYNLWGPGTLVAVSS VL: ELVLTQTASSVSAAVGGTVTISCQSSESVYKTNYLSWFQKKPGQPPKLLIYDASTLASGVPSRFSGSGSGTQFTLTISDLECDDAATYYCAGGYSDDINAFGGGTEVVVK",3,5.1,9.3,17.3,31.2,60
"antibody 10-1 (antibody, V domains shown, Rabbit monoclonal) VH: QSLEESGGDLVKPGASLTLTCTASGFSFSSGYWICWVRQAPGKGLEWIACIYTGDGDTSYASWAKGRFTISKTSSTTVTLQMTSLTVADTAIYFCARDTSGTFYYNLWGPGTLVAVSS VL: ELVLTQTASSVSAAVGGTVTISCQSSESVYKTNYLSWFQKKPGQPPKLLIYDASTLASGVPSRFSGSGSGTQFTLTISDLECDDAATYYCAGGYSDDINAFGGGTEVVVK",3,5,9.3,17.1,31.3,57.7
